{"source": "paper PMC12405362", "substrate": "O=C(/C=C/c1ccc(O)c(O)c1)O[C@@H]1C[C@](O)(C(=O)O)C[C@@H](O)[C@H]1O", "experiment": "purified protein", "details": "tri-buffer (0.1 M acetic acid, 0.1 M Tris, 20 mM MES) pH 6, 30°C, 15 min, hydrolysis"}
{"protein": "CiCQE3 (Cichorium intybus) (protein) CYPSIISFGDSLADTGNVKEMASKSNVHAPHFLFPPYGETFFNKPTGRCSNGRLIIDFVAESLGLPLIPPSLGSKTNVHVTGLGQGVNYAVAGATALDSSFHEERGVEIWTNASLGVQLGWFKDSLSSICSSVADCRQLIGQSLVLMGEIGGNDYNHALVAGKSIDEVETYVPFVINTIVSAVNELIELGAETLVIPGNLPIGCSAAYLTIFYGSSEVQYDNSTGCIITLNKLAEYHNEFLQKKLHQIRELHPDVNIIYADYYNAAMQFFRSPNKYGFTNGALKACCGGGGPFNYNPSIDCADPASTSCAQPDTYVNWDGLHLTEAAYRVIFKSIFEGSYTTPRFNALCPTSMLQGVGGFSSSI", "values": [{"measurement": "Km", "result": 1.740, "unit": "mM"}, {"measurement": "kcat", "result": 0.466, "unit": "s⁻¹"}]}
